This test concerns the target APOBEC-1 (apolipoprotein B mRNA editing catalytic subunit 1) (Homo sapiens (Human), UniProt P41238 1-236). As to the kind of experiment: yeast two-hybrid (MatchMaker; his- selection and lacZ filter lift), negative control.

Sequence of APOBEC-1 (apolipoprotein B mRNA editing catalytic subunit 1) (P41238 whole entry M80I): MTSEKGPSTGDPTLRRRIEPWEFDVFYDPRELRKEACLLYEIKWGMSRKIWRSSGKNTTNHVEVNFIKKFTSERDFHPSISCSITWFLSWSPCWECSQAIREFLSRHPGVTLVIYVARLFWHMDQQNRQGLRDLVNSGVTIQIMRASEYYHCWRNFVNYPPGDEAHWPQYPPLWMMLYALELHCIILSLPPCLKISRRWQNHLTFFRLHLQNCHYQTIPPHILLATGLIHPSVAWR
Text: The MatchMaker system includes specific protocols for setting up the yeast two hybrid selection, for verifying true His+, LacZ+ transformants and ruling out false positives. Both the selection scheme and verification of true positives follow the manufacturer's recommendations using cDNAs encoding APOBEC-and ACF (FIG. 9).

B1: lamin C (other, UniProt P02545-2 66-230, looked up)
chain: SEEVVSREVSGIKAAYEAELGDARKTLDSVAKERARLQLELSKVREEFKELKARNTKKEGDLIAAQARLKDLEALLNSKEAALSTALSEKRTLEGELHDLRGQVAKLEAALGEAKKQLQDEMLRRVDAENRLQTMKEELDFQKNIYSEELRETKRRHETRLVEID
notes: Negative-control two-hybrid fusion
In the case of B1, the binding result is given as “no binding”.

For the origin of these results see patent US20050287648A1 (UNIVERSITY OF ROCHESTER, published 2005).
